{
  "source": "patent US20250099504A1",
  "about": "(INSTITUTE OF HEMATOLOGY AND BLOOD DISEASES HOSPITAL CHINESE …, published 2025)",
  "biological_target": "T1, human CD7 (human, UniProt P09564 26-240)",
  "T1 construct": "whole, on cells; also called CD7 antigen; CD7 on the surface of Jurkat, Molt4, CCRF-CEM and Hut78 cells",
  "T1 sequence (looked up)": "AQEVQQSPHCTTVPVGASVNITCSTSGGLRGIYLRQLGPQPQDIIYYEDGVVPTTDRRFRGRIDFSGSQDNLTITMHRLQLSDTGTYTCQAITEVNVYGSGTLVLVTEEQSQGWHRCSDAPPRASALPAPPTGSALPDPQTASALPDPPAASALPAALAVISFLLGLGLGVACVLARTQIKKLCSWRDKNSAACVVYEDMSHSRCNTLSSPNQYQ",
  "experiment": "FACS on Jurkat, Molt4, CEM and Hut78 cells that highly express human CD7; antibody at 0.15 µg/100 µl",
  "protocol": "Binding of the monoclonal antibody HIT7 in Example 1 and the commercialized CD7-6B7 antibody (Biolegend, PE/Cyanine7 anti-human CD7 antibody, clone number CD7-6B7) to CD7 on the surface of Jurkat, Molt4, CCRF-CEM, and Hut78 cells that highly expressed human CD7 was tested by FACS: The antibody was incubated at a concentration of 0.15 μg/100 μl with 2×10⁵ Jurkat, Molt4, CEM, and Hut78 cells respectively at 4° C. in dark for 30 minutes, washed twice with PBS, resuspended by 100 μl, and loaded for FACS test.",
  "data": [
    {"binder": "monoclonal antibody HIT7 (antibody, V domains shown, also called CD7-HIT7 monoclonal antibody; mouse anti-human CD7 monoclonal antibody) VH: QVQLQESGPGLVKPSQTVSLTCTVTGISITTGNYRWSWIRQFPGNKLEWIGYIYYSGIITYNPSRTSRTTITRDISKNQFFLEMNSLTAEDTATYYCARERGIYYDSLWYFDVWGAGTTVTVSS VL: DIVLTQSPASLAVSLGQRATISCRASKSVSASGYSYMHWYQQKPGQPPKLLIYLASNLESGVPARFSGSGSGTDFTLNIHPVEEEDAVTYYCQHSRELPYTFGGGTKLEIKR", "values": [
      {"measurement": "binding result", "result": "binds"}
    ]}
  ]
}
